{
  "source": "patent US20220380473A1",
  "about": "“ANTI-GAL3 ANTIBODIES AND USES THEREOF” (TrueBinding, Inc., priority 2019, published 2022)",
  "molecules": {"B1": {"name": "IMT001: anti-Gal3 monoclonal antibody (Immutics); printed as mIMT001 (IMT001), murine (antibody, V domains shown)", "VH": "QIQLVQSGPELKKPGETVKISCKASGYTFTNYGMNWVKQAPGKGLKWMGWINTNTGEPTYVEEFKGRFAFSLETSASTAYLQINNLKNEDTATYFCAPYDNFFAYWGQGTLVTVSA", "VL": "DIVITQDELSNPVTSGESVSISCRSSKSLLYKDGKTYLNWFLQRPGQSPQLLIYLMSTHASGVSDRFSGSGSGTDFTLEISRVKAEDVGVYYCQQLVDYPLTFGAGTKLELK"}},
  "key": {"hGal3 peptides": {"system": "hGal3 peptides", "assay": "ELISA of antibody binding to hGal3 peptides (Example 14)", "set-up": "species or system human", "settings": "0.1 ug/ml antibody", "description": "A library of 20 amino acid peptides each representing a certain regions of hGal3 (SEQ ID NO: 1) was produced. At least 2 ug/ml of the produced hGal3 peptide: peptide 1 (SEQ ID NO: 3), 5 (SEQ ID NO: 7), 6 (SEQ ID NO: 8), 8 (SEQ ID NO: 10), or 23 (SEQ ID NO: 25) in 50 ul of PBS was added to the wells of a 96-well ELISA plate (Thermo Fisher, 44-2404-21). As a positive control, 0.1 ug/ml of full-length human Galectin-3 protein (Acro Biosystems, GA3-H5129) in 100 ul of PBS was added to the wells of the ELISA plate. After incubating the plate at 4° C. overnight, the plate was washed three times with 300 ul of PBST per well. The plate was then blocked for an hour with 200 ul of 2% BSA in PBST per well at room temperature with gentle rocking. Thereafter, the 2% BSA in PBST was removed and 100 ul of 0.1 ug/ml of antibody in 2% BSA in PBST was added to the wells (FIG. 17A-B). As for negative control group, the antibodies were applied without the hGal3 peptides or the hGal3 protein.\nThe plate was incubated for an hour at room temperature with gentle rocking and then washed three times with 300 μl of PBST per well. […] The reaction was stopped with 50 ul of 1M HCl (VWR) per well and the plate was read using a plate reader (Molecular Devices) at absorbance of 450 nm."}, "[1]": {"system": "mouse macrophage cell line RAW264.7", "assay": "IHC and flow cytometry staining of RAW mouse macrophages", "assay_type": "cell-based", "description": "The expression of Gal3 on mouse macrophages was detected by both IHC and Flow cytometry analysis. In the details of IHC, 100,000 cells per well were seeded overnight. On the second day, cells were washed once with PBS, fixed with 3% formaldehyde at room temperature for 10 min, then washed twice with PBS and blocked in PBS containing 10% FBS and […] for 1 h at room temperature. After blocking, cells were incubated with 10 μg/mL of 1st antibody mIgG-biotin (BioLegend) or IMT001-biotin at 4° C. overnight, washed three times with PBST, stained with avidin-HRP (1:1000) at room temperature for 1 h and then washed three times again with PBST. The staining was developed using peroxidase substrate and counterstained with Hematoxylin QS (Vector Laboratories).\nIn the experiment of flow cytometry, 100,000 RAW cells were blocked with 10% FBS plus 200 μg/mL hIgG on ice for 20 min, and then incubated with 100 μl 10% FBS HBSS solution that contains control mIgG (BD Biosciences) or IMT001 at 10 μg/ml on ice for 20 minutes. Then cells were washed and incubated with APC conjugated anti-mFc antibodies (Jackson ImmunoResearch) at 1:100 on ice for 20 min. After spinning, live/dead cells were stained with Violet dead cell stain kit (Life Technologies). Stained cells were subjected to flow analysis."}, "MBT-2 cells": {"system": "MBT-2 cells", "assay": "MBT-2 bladder tumor model, combination with anti-PD1 or anti-PD-L1", "assay_type": "in vivo, mouse", "settings": "20 mg/Kg i.p.", "description": "To evaluate the potential for GAL3-TIM3 blocking antibodies to influence tumor biology, studies were conducted in mice bearing MBT-2 bladder tumor xenografts in combination with other antibodies targeting the immunomodulatory checkpoint molecules PD-1 and PD-L1. Briefly, 7-week old female C3H/HeJ mice (Jackson Laboratory) were anesthetized by inhalation anesthetic (3 to 5% Isoflurane in medical grade air) and 1×10^6 MBT-2 cells (Sekisui XenoTech, LLC) in 0.1 mL PBS were subcutaneously injected into the right flank by using a syringe with a 25-ga needle. 7 days after tumor implantation, mice were randomly assigned into six groups (n=9-10). Mice were administrated intraperitoneally with isotype control mIgG2b (BioXCell), anti-Gal3 (mIMT001), anti-PD1 (RMP1-14, BioXCell) plus mIgG2b, anti-PD1 (RMP1-14) plus mIMT001, anti-PDL1 (10F.9G2, BioXCell) plus mIgG2b, and anti-PDL1 (10F.9G2) plus mIMT001. Isotype control and anti-Gal3 antibodies were dosed at 20 mg/Kg on day 7, 9, 12, 14 and 16; anti-PD1 (RMP1-14 10 mg/Kg) or anti-PDL1 (10F.9G2, 5 mg/Kg) were dosed on day 8, 12, and 15. Tumor volumes and body weights were monitored twice per week. The animals were humanely sacrificed when tumor volumes or animal health reached IACUC-defined endpoints. Results were expressed as mean±SEM, with statistical analysis performed by two-way ANOVA."}},
  "note": "“Also recorded” adds a separate entry of the source.",
  "data": [
    {"molecule": "B1", "values": [
      {"measurement": "hGal3 peptides bound", "setting": "hGal3 peptides", "result": "5 (SEQ ID NO: 7), 6 (SEQ ID NO: 8), and 8 (SEQ ID NO: 10)"},
      {"measurement": "IHC detection of Gal3 on macrophages", "setting": "[1]; 10 μg/mL, vs mIgG control", "result": "clearly detected Gal3 expression on macrophages"},
      {"measurement": "MFI of stained RAW cells vs isotype control", "setting": "[1]; 10 μg/ml, flow cytometry", "result": "more than 10 folds"},
      {"measurement": "effect on tumor volume, single agent", "setting": "MBT-2 cells", "result": "did not exhibit any significant decrement in tumor volume; also recorded: did not reduce tumor volumes"}
    ]}
  ]
}
